Data set [1] in a line: viscosity (falling ball micro viscometer); Tpm alone at 1.0 or 2.0 mg/mL; 30 mM Hepes-Na pH 7.3, 100 mM NaCl, 2 mM DTT; 20 °C; excess viscosity over buffer (1.0412 mPa∙s) as measure of head-to-tail interaction between Tpm dimers. The settings on record: other: viscosity (falling ball micro viscometer).
Data set [2] addresses F-actin from rabbit skeletal muscle, stabilised by phalloidin (rabbit) (UniProt P68135). Kind of data set: co-sedimentation; 10 uM phalloidin-stabilized F-actin mixed with increasing Tpm (0 to 5.5-6 uM; up to almost 40 uM for Tpm1.12); 30 mM Hepes-Na pH 7.3, 200 mM NaCl; 40 min at 25 °C; 100,000 x g for 40 min; SDS-PAGE of pellet and supernatant; K50% = Tpm concentration at which actin is half-saturated.

Data set [3] shares this target. The experiment in a line: temperature dependence of light scattering; 20 uM F-actin stabilized by 20 uM phalloidin and 10 uM Tpm; 30 mM Hepes-Na pH 7.3, 100 mM NaCl, 2 mM DTT; heating 1 °C/min; light scattering at 90 degrees, 350 nm; T_diss = temperature of 50% decrease.
The next data set deals with P09493. Kind of data set: viscosity (falling ball micro viscometer); Tpm alone at 1.0 or 2.0 mg/mL; 30 mM Hepes-Na pH 7.3, 100 mM NaCl, 2 mM DTT; 20 °C; excess viscosity over buffer (1.0412 mPa∙s) as measure of head-to-tail interaction between Tpm dimers. The settings on record: other: viscosity (falling ball micro viscometer).

6 substances from publication PMC8152229 can be followed below.

Chain of Tropomyosin isoform Tpm1.7 with Ala-Ser N-terminal extension (chain, as listed by the source): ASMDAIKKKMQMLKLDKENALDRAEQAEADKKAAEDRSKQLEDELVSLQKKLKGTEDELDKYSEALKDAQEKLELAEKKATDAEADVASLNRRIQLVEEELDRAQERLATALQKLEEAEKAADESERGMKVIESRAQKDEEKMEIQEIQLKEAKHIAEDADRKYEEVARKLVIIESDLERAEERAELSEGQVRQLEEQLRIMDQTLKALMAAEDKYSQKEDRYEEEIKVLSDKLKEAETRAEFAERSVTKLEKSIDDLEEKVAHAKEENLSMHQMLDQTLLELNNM
Chain of Tropomyosin isoform Tpm1.12 (chain, as listed by the source): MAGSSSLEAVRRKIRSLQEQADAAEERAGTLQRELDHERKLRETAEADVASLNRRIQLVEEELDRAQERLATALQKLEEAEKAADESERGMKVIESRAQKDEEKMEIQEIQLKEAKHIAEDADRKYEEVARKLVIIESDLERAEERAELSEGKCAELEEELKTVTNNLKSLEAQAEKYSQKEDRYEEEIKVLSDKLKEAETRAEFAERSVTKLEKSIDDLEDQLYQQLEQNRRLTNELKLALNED

Turning to “Tropomyosin isoform Tpm1.5 with Ala-Ser N-terminal extension”, in data set [1], the excess viscosity at 1 mg/mL is 0.179 mPa∙s and the excess viscosity at 2 mg/mL amounted to 0.653 mPa∙s.
“Tropomyosin isoform Tpm1.5 with Ala-Ser N-terminal extension (natural protein)” showed a K50% in data set [2] of 1.11 µM. For the same substance, the T diss in data set [3] turned out to be 48.9 °C.
As for “Tropomyosin isoform Tpm1.6 with Ala-Ser N-terminal extension”, in data set [1], the excess viscosity at 1 mg/mL is 0.474 mPa∙s and the excess viscosity at 2 mg/mL is 1.34 mPa∙s.
In data set [2], “Tropomyosin isoform Tpm1.6 with Ala-Ser N-terminal extension (natural protein)” registered a K50% of 0.45 µM. The same substance gave a T diss in data set [3] of 41.4 °C.
In the data set with P09493, “Tropomyosin isoform Tpm1.7 with Ala-Ser N-terminal extension” yielded an excess viscosity at 1 mg/mL of 1.03 mPa∙s and an excess viscosity at 2 mg/mL of 3.58 mPa∙s.
As for Tropomyosin isoform Tpm1.12, in the data set with P09493, the excess viscosity at 1 mg/mL turned out to be 0.026 mPa∙s and the excess viscosity at 2 mg/mL stood at 0.066 mPa∙s.
